Patent US20030082746
Numbering of substitutions follows the chain as printed.

Tests used:
[1] = target: T1, pro-transglutaminase derived from S. mobaraense IFO13819 (transglutaminase having the pro-structure part)
T1 chain: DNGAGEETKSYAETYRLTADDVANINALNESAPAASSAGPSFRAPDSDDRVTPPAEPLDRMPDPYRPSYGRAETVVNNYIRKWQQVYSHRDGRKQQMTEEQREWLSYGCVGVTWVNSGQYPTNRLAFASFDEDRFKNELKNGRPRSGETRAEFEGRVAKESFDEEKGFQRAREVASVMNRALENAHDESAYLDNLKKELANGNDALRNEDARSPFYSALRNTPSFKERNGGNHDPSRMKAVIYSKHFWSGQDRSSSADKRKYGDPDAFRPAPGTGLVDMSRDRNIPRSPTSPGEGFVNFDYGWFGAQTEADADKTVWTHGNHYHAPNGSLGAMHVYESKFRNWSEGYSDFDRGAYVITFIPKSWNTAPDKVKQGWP

[2] = target: T2, pro-transglutaminase of S. mobaraense, Ala-Pro deletion type of the pro-structure part
T2 chain: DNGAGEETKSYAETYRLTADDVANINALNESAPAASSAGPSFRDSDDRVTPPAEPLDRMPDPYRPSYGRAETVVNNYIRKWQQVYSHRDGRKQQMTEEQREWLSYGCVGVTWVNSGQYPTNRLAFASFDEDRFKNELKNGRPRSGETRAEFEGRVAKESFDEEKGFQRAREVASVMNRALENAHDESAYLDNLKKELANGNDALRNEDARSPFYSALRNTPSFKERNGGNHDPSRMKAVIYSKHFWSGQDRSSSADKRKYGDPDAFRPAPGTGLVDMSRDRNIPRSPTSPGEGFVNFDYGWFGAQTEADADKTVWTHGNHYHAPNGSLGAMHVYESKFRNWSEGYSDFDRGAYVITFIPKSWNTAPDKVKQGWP

[3] = target: T3, pro-transglutaminase of S. mobaraense, Asp deletion type of the pro-structure part
T3 chain: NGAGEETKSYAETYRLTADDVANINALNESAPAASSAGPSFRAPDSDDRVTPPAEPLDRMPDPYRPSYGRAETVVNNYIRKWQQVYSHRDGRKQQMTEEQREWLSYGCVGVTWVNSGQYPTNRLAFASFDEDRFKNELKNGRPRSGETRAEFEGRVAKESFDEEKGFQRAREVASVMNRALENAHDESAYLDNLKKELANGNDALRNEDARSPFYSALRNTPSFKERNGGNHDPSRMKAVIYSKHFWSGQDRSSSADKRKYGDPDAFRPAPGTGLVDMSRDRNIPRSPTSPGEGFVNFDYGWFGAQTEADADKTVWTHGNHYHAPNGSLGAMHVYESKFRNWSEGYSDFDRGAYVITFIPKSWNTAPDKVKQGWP

[4] = target: T4, pro-transglutaminase of S. mobaraense, Asp-Asn-Gly-Ala-Gly-Glu deletion type of the pro-structure part
T4 chain: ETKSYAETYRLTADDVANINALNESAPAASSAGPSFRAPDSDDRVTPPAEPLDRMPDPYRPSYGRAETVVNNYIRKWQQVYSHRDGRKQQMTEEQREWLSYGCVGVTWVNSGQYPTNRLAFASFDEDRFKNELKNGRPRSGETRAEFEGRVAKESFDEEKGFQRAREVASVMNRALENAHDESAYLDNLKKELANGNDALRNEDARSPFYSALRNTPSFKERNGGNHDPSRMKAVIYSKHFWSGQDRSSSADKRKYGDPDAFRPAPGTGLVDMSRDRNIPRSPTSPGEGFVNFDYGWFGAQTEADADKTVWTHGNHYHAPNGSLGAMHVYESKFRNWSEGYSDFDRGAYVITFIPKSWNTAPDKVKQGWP

[5] = target: T5, pro-transglutaminase of S. mobaraense, Gly-Pro-Arg type modified variant of the pro-structure part
T5 chain: T1 chain with R43G, A44P, P45R

[6] = target: T6, pro-transglutaminase of S. mobaraense, Gly-Pro-Lys type modified variant of the pro-structure part
T6 chain: T1 chain with R43G, A44P, P45K

[7] = target: T7, pro-transglutaminase of S. mobaraense, Phe-Arg-Ala-Pro deletion type and Arg insertion-variant of the pro-structure part
T7 chain: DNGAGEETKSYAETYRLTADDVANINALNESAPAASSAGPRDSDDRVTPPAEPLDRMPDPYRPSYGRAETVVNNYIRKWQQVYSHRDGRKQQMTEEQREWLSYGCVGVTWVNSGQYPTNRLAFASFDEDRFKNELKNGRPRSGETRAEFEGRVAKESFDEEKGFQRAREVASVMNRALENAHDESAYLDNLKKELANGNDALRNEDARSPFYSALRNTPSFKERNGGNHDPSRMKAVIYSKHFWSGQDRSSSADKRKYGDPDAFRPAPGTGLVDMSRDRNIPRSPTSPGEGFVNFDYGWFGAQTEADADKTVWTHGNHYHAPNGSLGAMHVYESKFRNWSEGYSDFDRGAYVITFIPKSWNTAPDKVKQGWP

[8] = target: T8, pro-transglutaminase of S. mobaraense, Phe-Arg-Ala-Pro deletion type and Lys insertion-variant of the pro-structure part
T8 chain: T7 chain with R41K

[9] = target: T9, pro-transglutaminase of S. mobaraense, Phe-Arg-Ala-Pro deletion type of the pro-structure part
T9 chain: T7 chain with R41S

B1: SAMP45, serine protease produced by Streptomyces albogriseolus (protein)
chain: NGENSTAAGSSASATALKGKHRVTLITGDRVALDAKGRVVGLEPAEGREHIPVQIRRSDGHTLVVPADAARLVASGKLDQRLFDVTELNKAATRTAHRGGLKVIVGYRGAAKAAKADVRDAGTVRRTLTSLNADAVQTPQEAGAELWEAVTDGDRTASGVARVWLDGVRKASLDTSVGQIGTPKAWEAGYDGKGVKIAVLDTGVDATHPDLKGQVTASKNFTSAPTTGDVVGHGTHVASIAAGTGAQSKGTYKGVAPGAKILNGKVLDDAGFGDDSGILAGMEWAAAQGADIVNMSLGGMDTPETDPLEAAVDKLSAEKGILFAIAAGNEGPQSIGSPGSADSALTVGAVDDKDKLADFSSTGPRLGDGAVKPDLTAPGVDITAASAKGNDIAKEVGEKPAGYMTISGTSMATPHVAGAAALLKQQHPEWKYAELKGALTASTKDGKYTPFEQGSGRVQVDKAITQTVIAEPVSLSFGVQQWPHADDKPVTKKLTYRNLGTEDVTLKLTSTATGPKGKAAPAGFFTLGASTLTVPANGTASVDVTADTRLGGAVDGTYSAYVVATGAGQSVRTAAAVEREVESYNVTLKVLDRSGKATANYMAYLSGLTGLGKDRSYAPYEADGAVSVRVPKGGYVLDASVLVGADPETWRGADWLAQPKLDVTRNTTVTVDARKAKPVKVTVPGKAAKAQFASADYTIETNDSAVSYGWWLENYSGFRSAHLGPQITNGTLSQQWNTHFSNGAKAQYTAISGGKVKKLATGYTRAFKAKEFATVQVGMGAAASGKKGAVTAFGWLPGSSGASGFSQEQKLPSTRTLYLSTVNGVTWDLDFEQLGGVDNEGWPIYDAVYTIGVGKTYKGGKTYKETVNTAVFGPRLTSSYGVFRDGNSIYGVIPLFADGKGHAGSSEFSSAVTTLYRNGKKVGSNNDPLFGEEGFTVPSGDAAYRLTTSVKRSAKVAAASTRIDASWTFRSKKTSGEKQLPVSSARFAAVTGLDSKVAAGKKATFPVVVEGAAQGKNLKSLAVYVSYNGGKTWKKTTVTKGKITVKNPAKGKAISFRAKITDKKGNASLITIHNAYYGK
N-terminal amino acid sequence of the cleaved transglutaminase [1]: it had the structure in which the 4 C-terminal amino acids of Phe-Arg-Ala-Pro from the pro-structure part was added to the naturally occurring mature transglutaminase
N-terminal amino acid sequence of the cleaved transglutaminase [2]: Phe-Arg was added to the N-terminal of the naturally occurring mature transglutaminase shown in SEQ ID NO: 5 in the transformant harboring pPKSPTG1 AP
N-terminal amino acid sequence of the cleaved transglutaminase [3]: Phe-Arg-Ala-Pro was added to the naturally occurring mature transglutaminase in the transformant harboring pPKSPTG1 D or pPKSPTG1 DNGAGE
N-terminal amino acid sequence of the cleaved transglutaminase [4]: Phe-Arg-Ala-Pro was added to the naturally occurring mature transglutaminase in the transformant harboring pPKSPTG1 D or pPKSPTG1 DNGAGE
N-terminal amino acid sequence of the cleaved transglutaminase [5]: the sequence identical to that of the naturally occurring mature transglutaminase was confirmed for C. glutamicum ATCC13869 harboring pVSS1 and pPKSPTG11, or pVSS1 and pPKSPTG12, which had Asp as the N-terminal amino acid residue
N-terminal amino acid sequence of the cleaved transglutaminase [6]: the sequence identical to that of the naturally occurring mature transglutaminase was confirmed for C. glutamicum ATCC13869 harboring pVSS1 and pPKSPTG11, or pVSS1 and pPKSPTG12, which had Asp as the N-terminal amino acid residue
N-terminal amino acid sequence of the cleaved transglutaminase [7]: Ser-Ala-Gly-Pro-Lys (SEQ ID NO: 69) or Ser-Ala-Gly-Pro-Arg (SEQ ID NO: 70) was found to be added to the sequence of the naturally occurring mature transglutaminase for C. glutamicum ATCC13869 harboring pVSS1 and pPKSPTG13, or pVSS1 and pPKSPTG14
N-terminal amino acid sequence of the cleaved transglutaminase [8]: Ser-Ala-Gly-Pro-Lys (SEQ ID NO: 69) or Ser-Ala-Gly-Pro-Arg (SEQ ID NO: 70) was found to be added to the sequence of the naturally occurring mature transglutaminase for C. glutamicum ATCC13869 harboring pVSS1 and pPKSPTG13, or pVSS1 and pPKSPTG14
N-terminal amino acid sequence of the cleaved transglutaminase [9]: Ser-Ala-Gly-Pro-Ser was added to the N-terminal of the naturally occurring mature transglutaminase in the transformant harboring pPKSPTG1 FRAP
